This is an account of results in patent publication US20230025129A1 (KYMAB, published 2023).

Residue numbers refer to the chain shown, from its start. In names and notes the source's numbering stands.

The target of assay [1] is T1, mouse matriptase-2 ECD protein his tag (mouse, UniProt Q9DBI0 80-811).
T1 construct: aa 80-811 of Q9DBI0 with C-terminal linker and His tag; also called mouse MTP-2 ECD; moMTP-2
T1 sequence: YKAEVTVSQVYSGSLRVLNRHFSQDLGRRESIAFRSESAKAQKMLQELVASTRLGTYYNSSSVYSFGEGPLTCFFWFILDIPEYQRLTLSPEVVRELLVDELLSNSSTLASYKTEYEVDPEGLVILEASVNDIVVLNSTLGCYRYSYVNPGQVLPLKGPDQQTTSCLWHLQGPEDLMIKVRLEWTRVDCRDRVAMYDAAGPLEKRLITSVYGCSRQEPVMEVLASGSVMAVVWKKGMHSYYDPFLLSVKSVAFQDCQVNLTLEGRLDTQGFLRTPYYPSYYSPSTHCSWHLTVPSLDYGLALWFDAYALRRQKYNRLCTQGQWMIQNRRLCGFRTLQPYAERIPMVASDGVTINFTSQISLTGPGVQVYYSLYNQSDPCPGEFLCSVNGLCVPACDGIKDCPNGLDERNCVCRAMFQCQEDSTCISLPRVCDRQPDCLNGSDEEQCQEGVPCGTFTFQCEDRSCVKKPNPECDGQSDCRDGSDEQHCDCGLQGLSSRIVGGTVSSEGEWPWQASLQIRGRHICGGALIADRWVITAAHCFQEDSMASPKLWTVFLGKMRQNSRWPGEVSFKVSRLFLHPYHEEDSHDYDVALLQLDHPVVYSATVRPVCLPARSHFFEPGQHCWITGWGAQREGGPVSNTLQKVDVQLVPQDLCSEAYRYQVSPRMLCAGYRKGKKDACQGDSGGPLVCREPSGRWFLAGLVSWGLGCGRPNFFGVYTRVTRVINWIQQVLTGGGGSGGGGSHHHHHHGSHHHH
Briefly: SPR (Biacore 8K), huIgG4PE captured on anti-human Fc, MTP-2 ECD as analyte, 1:1 fit. As for the experimental part:
(§1) Off-rate screening was performed by surface plasmon resonance (SPR), using a Biacore 8K system (GE Healthcare). Anti-human Fc mix (˜1000 RU) were immobilised in both active and reference channels in HBS-P+ buffer (GE BR100671) pH 7.4. Anti-MTP-2 hulgG4PE antibodies were then captured for 60 sec at 10 μl/min at 1 μg/ml concentration (approximatively 35 and 50 RU were captured) only on the active channel. MTP-2 ECD protein analytes were then injected (at 100, 25, 6.25, 1.56 and 0 nM concentrations) for 120 sec (association time) at 30 μl/min and dissociation monitored for 600 sec. Multiple cycle kinetics mode was used with all 8 channels being used. Reference and background were subtracted from the sensorgrams for each antibody and data was fitted using a 1:1 interaction model in the Biacore evaluation software. Rmax, ka, kd globally fitted, RI=0.

In assay [2] the target is T2, human matriptase-2 ECD protein his tag (human, UniProt Q8IU80 78-811).
T2 construct: also called human MTP-2 ECD; huMTP-2
T2 sequence: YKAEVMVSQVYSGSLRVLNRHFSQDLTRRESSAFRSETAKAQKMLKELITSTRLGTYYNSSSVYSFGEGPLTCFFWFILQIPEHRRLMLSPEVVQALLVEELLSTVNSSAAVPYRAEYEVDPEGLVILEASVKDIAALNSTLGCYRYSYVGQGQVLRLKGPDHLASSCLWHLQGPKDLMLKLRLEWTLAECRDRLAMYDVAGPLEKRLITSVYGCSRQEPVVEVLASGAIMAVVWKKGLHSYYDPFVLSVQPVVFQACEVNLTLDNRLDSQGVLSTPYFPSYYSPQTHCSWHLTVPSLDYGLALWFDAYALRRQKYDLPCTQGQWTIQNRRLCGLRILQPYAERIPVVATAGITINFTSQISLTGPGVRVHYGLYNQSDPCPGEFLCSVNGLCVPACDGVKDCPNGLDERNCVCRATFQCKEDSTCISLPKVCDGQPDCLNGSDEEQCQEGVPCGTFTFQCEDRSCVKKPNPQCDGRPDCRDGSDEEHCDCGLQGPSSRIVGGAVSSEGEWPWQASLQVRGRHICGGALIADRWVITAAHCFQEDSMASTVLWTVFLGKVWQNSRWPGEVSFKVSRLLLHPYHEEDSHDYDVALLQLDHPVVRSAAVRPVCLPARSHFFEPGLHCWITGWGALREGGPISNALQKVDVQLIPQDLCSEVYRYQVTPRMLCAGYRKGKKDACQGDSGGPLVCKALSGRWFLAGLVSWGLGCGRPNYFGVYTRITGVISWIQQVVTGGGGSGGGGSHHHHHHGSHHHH
The assay is described as above. The procedure:
as §1

In assay [3] the target is T2, human matriptase-2 ECD protein his tag. Briefly: SPR, his-tagged MTP-2 ECD protein (Table W). The procedure: as §1
NORI-011, NORI-008, NORI-003 and NORI-006 were all found to have cross-reactive binding to human, mouse, cyno and rat MTP-2 ECD proteins. […] The true KD value for NORI-008 could not be measured accurately for human or mouse MTP-2 due to a very slow off-rate.

B1: NORI-008 (antibody, human IgG4 S228P, kappa, V domains shown)
VH: QVQLQESGPGLVKPSETLSLTCSVSGGSVSSGRYYWTWIRQPPGKGLEWIGYISNSGNTNYNPSLKSRVTISLDTSKKQFSLSLSAVTAADTAVYYCARGFIYDYWFDPWGQGSLVTVSS
VL: DSQMTQSPSSLSASVGDRVTITCQASQDIDNYLNWYQQRPGKAPKLLIYDASKLETGVPSRFSGSGSGTDFTFTISSLQPEDFATYYCQQYGNLPITFGQGTRLDIKR
notes: human IgG4PE, kappa, in the in vitro assays; a mouse IgG1 format was used in one in vivo study only; also called NORI-008 hulgG4PE; NORI-008 IgG
B1: in assay [1], the “Binding Late top conc” value was found to be 39.2, binding was put at a Kd of 0.129 nM, the Stoichiometry worked out at 0.86 and the koff came to 3.05e-05 s⁻¹. In assay [1], this molecule returned an on-rate (kon) of 237000 M⁻¹ s⁻¹. Besides, in assay [2], the “Binding Late top conc” value was found to be 35.8, binding was put at a Kd of 0.0129 nM, the Stoichiometry came to 0.72 and the koff was 1.47e-05 s⁻¹. Further, the kon in assay [2] is 1.14e+06 M⁻¹ s⁻¹.

B2: NORI-013 (antibody, human IgG4 S228P, lambda, V domains shown)
VH: EVQLVESGGGLIQAGRSLRLSCAASGFTFDEHVIYWVRQIPGKGLEWISSISWKSDIIAYADSVKGRFTISRDNAKNALYLQMNSLRAEDTALYYCAREKDGDFYYYYFAMDVWGQGTTVTVSS
VL: QSALTQPPSASGSPGQSVTLSCTGTSSDVGYYNYVSWYLQHPGKAPKLMIYEVSKRPSGVPDRFSGSKSANTASLTVSGLQAEDEADYYCSSYAGSNKVVFGGGTKVTVLG
notes: human IgG4PE, lambda
Consider B2, for which, in assay [1], the “Binding Late top conc” value worked out at 7.5, the Stoichiometry was 1.47 and the kon was 10500 M⁻¹ s⁻¹. Moreover, in assay [2], the “Binding Late top conc” value was 14.6, the Kd turned out to be 1.79 nM, the Stoichiometry worked out at 1.05 and the koff came out at 5.78e-05 s⁻¹. The same molecule displayed an association rate constant (kon) in assay [2] of 32200 M⁻¹ s⁻¹.

B3: NORI-014 (antibody, human IgG4 S228P, lambda, V domains shown)
VH: B2 VH with I34M, S52T
VL: B2 VL
notes: human IgG4PE, lambda
Consider B3, for which, in assay [1], the “Binding Late top conc” value was found to be 5.4, the Stoichiometry stood at 0.93 and the kon is 12100 M⁻¹ s⁻¹. In assay [2], the “Binding Late top conc” value was 10.7, the equilibrium dissociation constant (Kd) was determined as 1.71 nM, the Stoichiometry amounted to 0.9 and the koff stood at 4.6e-05 s⁻¹. In addition, in assay [2], the kon was determined as 26900 M⁻¹ s⁻¹.

B4: NORI-011 (antibody, human IgG4 S228P, lambda)
heavy: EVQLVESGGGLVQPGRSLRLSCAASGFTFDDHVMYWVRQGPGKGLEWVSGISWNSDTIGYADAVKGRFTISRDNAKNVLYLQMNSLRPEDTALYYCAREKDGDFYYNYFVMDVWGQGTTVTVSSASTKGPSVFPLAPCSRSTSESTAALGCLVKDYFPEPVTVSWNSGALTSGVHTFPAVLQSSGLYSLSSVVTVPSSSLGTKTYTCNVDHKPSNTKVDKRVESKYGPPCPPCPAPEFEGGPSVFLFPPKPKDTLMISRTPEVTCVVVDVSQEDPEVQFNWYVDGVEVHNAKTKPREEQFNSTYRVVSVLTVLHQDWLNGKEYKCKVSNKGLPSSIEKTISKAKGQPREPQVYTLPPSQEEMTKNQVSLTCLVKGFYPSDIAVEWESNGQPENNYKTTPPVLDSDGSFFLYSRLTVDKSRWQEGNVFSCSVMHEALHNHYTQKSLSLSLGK
light: QSALTQPPSASGSPGQSVTISCTGTSSDVGFYNFVSWYQQHPDKAPKVMIYEVSKRPSGVPDRFSGSKSGNTASLTVSGLQAEDEADYYCSSYAGSNKVVFGGGTKLTVLGQPKAAPSVTLFPPSSEELQANKATLVCLISDFYPGAVTVAWKADSSPVKAGVETTTPSKQSNNKYAASSYLSLTPEQWKSHRSYSCQVTHEGSTVEKTVAPTECS
notes: human IgG4PE, lambda; NORI-010 with a P124S mutation in the VH domain
In assay [3], B4 had a Kd of 5.61 nM. This counts as single-digit nanomolar.

B5: NORI-006 (antibody, human IgG4 S228P, kappa, V domains shown)
VH: EVQLVESGGGLIKPGRSLRLSCTGSGFTFGDFGLSWFRQAPGKGLEWISFIRSKPYGGTTDYAASVKGRFTISRDDSKNVAYLQMNSLKTEDTAVYYCARNEILTGYYIFDYWGQGTLVTVSS
VL: DIQMTQSPSSLSASLGDRVTITCQASQDINNYLNWYQVQPGKAPKLLIFDASILETGVPSRFSGSGSGTDFSFTISSLQPEDIATYYCQQYDNLPLTFGGGTKVDFKR
notes: human IgG4PE, kappa
In assay [3], B5 returned a Kd of 2.93 nM.

B6: NORI-003 (antibody, human IgG4 S228P, kappa, V domains shown)
VH: EVQLVESGGGLVKPGRSLRLSCTGSGFTFGDFGMSWFRQAPGKGLEWVGFIRSKPYGGTTDYAPSVRGRFSISRDDSKGIVYLQMNSLRTEDTAVYYCSRNEILTGYYIFDYWGQGTLVTVSS
VL: B5 VL with Q27H, N30T, N34I, V38Q, Q39K, K45R, S72T, I83F, D92Y, F106I
notes: human IgG4PE, kappa; NORI-002 with the free cysteine of the VH domain mutated (printed as 'C49C')
For B6, in assay [3], binding was characterised by a dissociation constant (Kd) of 5.24 nM.
